Measurements taken from the supplement of paper PMC11246515.
± gives the standard deviation of the averaged measurements.

Assay: total protein half-life in vivo (active degradation + dilution); higher = more stable protein
[1] = E. coli NCM3722 delta-clpP delta-lon delta-hslV, growth: N-lim chemostat, doubling time 6 h
[2] = E. coli NCM3722 delta-clpP, growth: N-lim chemostat, doubling time 6 h
[3] = E. coli NCM3722 delta-hslV, growth: N-lim chemostat, doubling time 6 h
[4] = E. coli NCM3722 delta-lon, growth: N-lim chemostat, doubling time 6 h
[5] = E. coli NCM3722 delta-smpB, growth: N-lim chemostat, doubling time 6 h
[6] = wild type E. coli NCM3722, growth: C-lim chemostat, doubling time 3 h
[7] = wild type E. coli NCM3722, growth: C-lim chemostat, doubling time 6 h
[8] = wild type E. coli NCM3722, growth: C-lim chemostat, doubling time 12 h
[9] = wild type E. coli NCM3722, growth: N-lim chemostat, doubling time 6 h
[10] = wild type E. coli NCM3722, growth: N-lim chemostat, doubling time 12 h
[11] = wild type E. coli NCM3722, growth: P-lim chemostat, doubling time 6 h
[12] = wild type E. coli NCM3722, growth: P-lim chemostat, doubling time 12 h

Sequence | total protein half-life in vivo [1] | total protein half-life in vivo [2] | total protein half-life in vivo [3] | total protein half-life in vivo [4] | total protein half-life in vivo [5] | total protein half-life in vivo [6] | total protein half-life in vivo [7] | total protein half-life in vivo [8] | total protein half-life in vivo [9] | total protein half-life in vivo [10] | total protein half-life in vivo [11] | total protein half-life in vivo [12]
MQQRRPVRRALLSVSDKAGIVEFAQALSARGVELLSTGGTARLLAEKGLPVTEVSDYTGFPEMMDGRVKTLHPKVHGGILGRRGQDDAIMEEHQIQPIDMVVVNLYPFAQTVAREGCSLEDAVENIDIGGPTMVRSAAKNHKDVAIVVKSSDYDAIIKEMDDNEGSLTLATRFDLAIKAFEHTAAYDSMIANYFGSMVPAYHGESKEAAGRFPRTLNLNFIKKLDMRYGENSHQQAAFYIEENVKEASVATATQVQGKALSYNNIADTDAALECVKEFAEPACVIVKHANPCGVAIGNSILDAYDRAYKTDPTSAFGGIIAFNRELDAETAQAIISRQFVEVIIAPSASEEALKITAAKQNVRVLTCGQWGERVPGLDFKRVNGGLLVQDRDLGMVGAEELRVVTKRQPSEQELRDALFCWKVAKFVKSNAIVYAKNNMTIGIGAGQMSRVYSAKIAGIKAADEGLEVKGSSMASDAFFPFRDGIDAAAAAGVTCVIQPGGSIRDDEVIAAADEHGIAMLFTDMRHFRH | 5.11 ± 0.42 h | 4.51 ± 0.51 h | 4.73 ± 0.56 h | 4.99 ± 0.032 h | 4.41 ± 0.28 h | 3.19 ± 0.3 h | 5.88 ± 0.38 h | 9.3 ± 0.86 h | 4.36 ± 0.22 h | 6.9 ± 0.074 h | 5.961 ± 0.037 h | 11.9 ± 0.6 h
METFNSLFMVSPLLLGVLFFVAMLAGFIDSIAGGGGLLTIPALMAAGMSPANALATNKLQACGGSISATIYFIRRKVVSLSDQKLNIAMTFVGSMSGALLVQYVQADVLRQILPILVICIGLYFLLMPKLGEEDRQRRMYGLPFALIAGGCVGFYDGFFGPAAGSFYALAFVTLCGFNLAKATAHAKLLNATSNIGGLLLFILGGKVIWATGFVMLVGQFLGARMGSRLVLSKGQKLIRPMIVIVSAVMSAKLLYDSHGQEILHWLGMN [P0AD30] | 6.4 h | – | – | 6.29 ± 0.21 h | 6.13 h | – | 5.18 ± 0.11 h | – | 4.37 h | – | – | 10 ± 3.5 h
MPALDLIRPSVTAMRVIASVNADFARELKLPPHIRSLGLISADSDDVTYIAADEATKQAMVEVVYGRSLYAGAAHGPSPTAGEVLIMLGGPNPAEVRAGLDAMIAHIENGAAFQWANDAQDTAFLAHVVSRTGSYLSSTAGITLGDPMAYLVAPPLEATYGIDAALKSADVQLATYVPPPSETNYSAAFLTGSQAACKAACNAFTDAVLEIARNPIQRA | 6.04 ± 0.88 h | 4.87 h | 4.39 ± 0.31 h | 4.68 ± 0.094 h | 4.69 ± 0.1 h | 3.11 ± 0.15 h | 5.97 ± 0.72 h | 11.95 ± 0.013 h | 4.87 ± 0.41 h | 7.99 h | 6.1512 ± 0.003 h | 11.4 ± 0.5 h
